{
  "source": "paper PMC2605612",
  "about": "(Experimental cell research, 2008)",
  "key": {"[1]": {"target": "the molecule itself", "test": "cross-linking"}, "[2]": {"target": "the molecule itself", "test": "cross-linking", "remark": "listed apart in the source"}},
  "note": "Where two headings read alike, the source gives them in different places.",
  "data": [
    {"protein": "Myc-hFis1[32-152]GGIDGG (domain or fragment, human, UniProt Q9Y3D6 32-152, looked up) KSTQFEYAWCLVRSKYNDDIRKGIVLLEELLPGGIDGGRDYVFYLAVGNYRLKEYEKALKYVRGLLQTEPQNNQAKELERLIDKAMKKDGLVGMAIVGGMALGVAGLAGLIGLAVSKSKS", "values": [
      {"measurement": "fold decrease in dimer formation against Myc-hFis1[32-152]", "setting": "[1]", "result": "~3", "unit": "fold"}
    ]},
    {"protein": "Myc-hFis1[32-152]Δα5 (domain or fragment, human, UniProt Q9Y3D6 32-152, looked up) KSTQFEYAWCLVRSKYNDDIRKGIVLLEELLPKGSKEEQRDYVFYLAVGNYRLKENQAKELERLIDKAMKKDGLVGMAIVGGMALGVAGLAGLIGLAVSKSKS", "values": [
      {"measurement": "fold decrease in dimer formation against Myc-hFis1[32-152]", "setting": "[1]", "result": "~8", "unit": "fold"}
    ]},
    {"protein": "Fis/OMP (other, UniProt Q9Y3D6 1-120, looked up) MEAVLNELVSVEDLLKFEKKFQSEKAAGSVSKSTQFEYAWCLVRSKYNDDIRKGIVLLEELLPKGSKEEQRDYVFYLAVGNYRLKEYEKALKYVRGLLQTEPQNNQAKELERLIDKAMKKPIFMVLVPVFALTMVAAWAFMRYRQQL", "values": [
      {"measurement": "stoichiometry N", "setting": "[1]", "result": 2}
    ]},
    {"protein": "Myc-hFis1[92-152] (domain or fragment, human, UniProt Q9Y3D6 92-152, looked up) KYVRGLLQTEPQNNQAKELERLIDKAMKKDGLVGMAIVGGMALGVAGLAGLIGLAVSKSKS", "values": [
      {"measurement": "stoichiometry N", "setting": "[1]", "result": 2}
    ]},
    {"protein": "Myc-hFis1[32-152] (domain or fragment, human, UniProt Q9Y3D6 32-152, looked up) KSTQFEYAWCLVRSKYNDDIRKGIVLLEELLPKGSKEEQRDYVFYLAVGNYRLKEYEKALKYVRGLLQTEPQNNQAKELERLIDKAMKKDGLVGMAIVGGMALGVAGLAGLIGLAVSKSKS", "values": [
      {"measurement": "stoichiometry N", "setting": "[2]", "result": 4},
      {"measurement": "stoichiometry N", "setting": "[1]", "result": 5}
    ]},
    {"protein": "Myc-hFis1[32-152]-Y87A (domain or fragment, human, UniProt Q9Y3D6 32-152, looked up) KSTQFEYAWCLVRSKYNDDIRKGIVLLEELLPKGSKEEQRDYVFYLAVGNYRLKEAEKALKYVRGLLQTEPQNNQAKELERLIDKAMKKDGLVGMAIVGGMALGVAGLAGLIGLAVSKSKS", "values": [
      {"measurement": "stoichiometry N", "setting": "[1]", "result": 2}
    ]}
  ]
}
